Key:
Experiment in all cases: SPR
[1] = biological target: OAS scanning design from the DXP-604 starting point (Table 2, 1st design row, the 2nd table, row 8)
[2] = biological target: Efficient evolution design from the S309 starting point (Table 4, design row 1, the 4th table, row 4)
[3] = biological target: Inverse folding design from the DXP-604 starting point (Table 5, design row 6, the 5th table, row 9)
[4] = biological target: Inverse folding design from the DXP-604 starting point (Table 5, design row 7, the 5th table, row 10)
S309 = biological target: S309
[5] = biological target: Inverse folding design from the DXP-604 starting point (Table 5, design row 1, the 5th table, row 4)
[6] = biological target: Inverse folding design from the DXP-604 starting point (Table 5, design row 3, the 5th table, row 6)
[7] = biological target: Inverse folding design from the DXP-604 starting point (Table 5, design row 2, the 5th table, row 5)
[8] = biological target: Inverse folding design from the DXP-604 starting point (Table 5, design row 4, the 5th table, row 7)
[9] = biological target: Inverse folding design from the DXP-604 starting point (Table 5, design row 5, the 5th table, row 8)
DXP-604 = biological target: DXP-604
[10] = biological target: Efficient evolution design from the S309 starting point (Table 4, design row 2, the 4th table, row 5)
[11] = biological target: Inverse folding design from the LY-CoV1404 starting point (Table 5, design row 1, the 5th table, row 12)
[12] = biological target: Inverse folding design from the LY-CoV1404 starting point (Table 5, design row 2, the 5th table, row 13)
BD55–5840 = biological target: BD55–5840
[13] = biological target: Efficient evolution design from the S309 starting point (Table 4, design row 5, the 4th table, row 8)
[14] = biological target: OAS scanning design from the DXP-604 starting point (Table 2, 2nd design row, the 2nd table, row 9)
[15] = biological target: Efficient evolution design from the S309 starting point (Table 4, design row 3, the 4th table, row 6)
[16] = biological target: Efficient evolution design from the S309 starting point (Table 4, design row 6, the 4th table, row 9)
[17] = biological target: SARS-CoV-2 Spike RBD, original (Wuhan) strain (SARS-CoV-2, original Wuhan strain) (UniProt P0DTC2)

How did the pKD [1] turn out when “SARS-CoV-2 Spike RBD, XBB.1 strain (from UniProt P0DTC2) (domain or fragment)” was run?
Its pKD is 5.35 -log10(KD).

What about the pKD [2] of the same substance?
Its pKD is 8.7 -log10(KD).

What about the pKD [3] of the same substance?
The pKD was 6.37 -log10(KD).

What about the pKD [4] of the same substance?
The pKD was 6.15 -log10(KD).

What about the pKD (S309) of the same substance?
Its pKD is 8.93 -log10(KD).

And the pKD [5]?
The pKD was 5.78 -log10(KD).

And the pKD [6]?
Its pKD is 5.12 -log10(KD).

What about the pKD [7] of the same substance?
Its pKD is 5.99 -log10(KD).

And the pKD [8]?
The pKD was 5.84 -log10(KD).

What about the pKD [9] of the same substance?
The pKD was 5.91 -log10(KD).

Which results are given for “SARS-CoV-2 Spike RBD, XBB.1.5 strain (from UniProt P0DTC2) (domain or fragment)”?
pKD (DXP-604): 5.84 -log10(KD); pKD [1]: 5.87 -log10(KD); pKD [10]: 8.93 -log10(KD); pKD [2]: 8.89 -log10(KD); pKD [11]: 4.87 -log10(KD); pKD [12]: 4.88 -log10(KD); pKD (BD55–5840): 6.14 -log10(KD); pKD [13]: 9.12 -log10(KD)

Which results are given for “SARS-CoV-2 Spike RBD, original (Wuhan) strain (from UniProt P0DTC2) (domain or fragment)”?
pKD [1]: 9.07 -log10(KD); pKD [2]: 8.7 -log10(KD); pKD [14]: 9.38 -log10(KD); pKD [15]: 8.7 -log10(KD); pKD [16]: 8.7 -log10(KD)

For DXP-604 (antibody), which pKD [17] is on record?
The pKD was 9.67 -log10(KD).

Reference: publication PMC12164381
